From US20240252670A1, “ANTIBODY DRUG CONJUGATE, PREPARATION METHOD THEREFOR AND APPLICATION THEREOF” (TSINGHUA UNIVERSITY, priority 2021, published 2024)

Target: PD-L1 on the surface of murine cells (MC38, B16, wild-type DC 2.4) (murine) (UniProt Q9EP73)
Test: FACS on MC38 cells, FITC-labeled goat anti-human secondary antibody

Chain of PD-L1 on the surface of murine cells (MC38, B16, wild-type DC 2.4) (murine) (Q9EP73 19-290): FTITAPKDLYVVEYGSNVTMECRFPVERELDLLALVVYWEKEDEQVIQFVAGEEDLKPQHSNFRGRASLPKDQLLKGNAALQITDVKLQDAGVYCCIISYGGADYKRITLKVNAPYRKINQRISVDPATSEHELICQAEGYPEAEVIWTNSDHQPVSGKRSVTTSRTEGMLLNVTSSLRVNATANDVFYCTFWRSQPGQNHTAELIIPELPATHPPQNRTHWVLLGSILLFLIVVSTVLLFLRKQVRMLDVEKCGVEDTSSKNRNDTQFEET

- MFI: 167
- shift rate of the FITC positive signal relative to the NC group: 1.7%
Substance: isotype control IgG (antibody)
